According to patent US20040091478A1:

B1: rabbit soluble type CD14 (in New Zealand white rabbit serum) (receptor, UniProt Q28680 18-342, looked up)
chain: STDTPEPCELDDDDIRCVCNFSDPQPDWSSALQCMPAVQVEMWGGGHSLEQFLRQADLYTDQRRYADVVKALRVRRLTVGAVQVPAPLLLGVLRVLGYSRLKELALEDIEVTGTAPPPPPLEATGPALSTLSLRNVSWPKGGAWLSELQQWLKPGLQVLNIAQAHTLAFSCEQVRTFSALTTLDLSENPGLGERGLVAALCPHKFPALQDLALRNAGMKTLQGVCAALAEAGVQPHHLDLSHNSLRADTQRCIWPSALNSLNLSFTGLQQVPKGLPAKLNVLDLSCNKLNRAPQPGELPKVVNLSLDGNPFLVPGASKLQEDLTN
B2: rhesus monkey soluble type CD14 (in serum) (receptor)
chain: TTPEPCELDDEDFRCVCNFSEPHPDWSEAFQCVSAVEVEIRVGGLSLEPFLTRVDPDADPRQYADTIKALRVRRLTVGAAQVPAQLLVGALRVLAYSRLQELTLEDLEITGTMPPLPLEATGLALSSLRLHNVSWATGRSWLAELQQWLKPGLKVLSIAQAHSPAFSCEQVRAFPALTSLDLSDNPGLGERGLIAALCPHKFPALQNLALRNTGMETPTGVCAALAAAGVQPHSLDLSHNSLRATANPSAPRCMWSSALNSLNLSFAGLEQVPKGLPAKLRVLDLSCNRLNRRPRPDELPQVDNLALDGNPFLVPGTALPQEGSMN
B3: crab-eating macaque soluble type CD14 (in serum) (receptor)
chain: B2 chain
B4: soluble type CD14 purified from human serum (receptor)
chain: TTPEPCELDDEDFRCVCNFSEPQPDWSEAFQCVSAVEVEIHAGGLNLEPFLKRVDADADPRQYADTVKALRVRRLTVGAAQVPAQLLVGALRVLAYSRLKELTLEDLKITGTMPPLPLEATGLALSSLRLRNVSWATGRSWLAELQQWLKPGLKVLSIAQAHSPAFSCEQVRAFPALTSLDLSDNPGLGERGLMAALCPHKFPAIQNLALRNTGIETPTGVCAALAAAGVQPHSLDLSHNSLRATVNPSAPRCMWSSALNSLNLSFAGLEQVPKGLPAKLRVLDLSCNRLNRAPQPDELPEVDNLTLDGNPFLVPGTALPHEGSMNSGVVPACARSTLSVGVSGTLVL

target: F1024-1-3 antibody (monoclonal antibody produced by hybridoma F1024-1-3, Accession No. FERM BP-7511); test: competition ELISA: 4-fold diluted serum mixed with 1 µg/mL peroxidase-labeled F1024-1-3, added to immobilised human CD14(1-356)

Row | inhibition ratio of binding of F1024-1-3 antibody to human CD14 | Binder
1 | 52% | B1
2 | 44% | B2
3 | 57% | B3
4 | 83% | B4
